# Measured values reported in the nanobody polyreactivity screen of Harvey et al. (2022).
# Experiment: yeast display, Sf9 membrane polyspecificity reagent, FACS + sequencing; frameworks hold sequencing errors
# How it was run: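 In a synthetic yeast display library (Saccharomyces cerevisiae BJ5465), nanobody expression was induced with galactose for 36–48 hours. FACS gates were set low and high (top ~1%) using anti-HA fluorescence for expression and streptavidin fluorescence for binding of the Sf9 membrane reagent. Each polyreactivity label is drawn from the gate of origin.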
row,Sequence,polyreactivity (PSR sort gate)
1,QVQLVESGGGLVQAGGSLRLSCAASGITFGRYAMGWYRQAPGKERELVAAITTRGGSTYYADSVKGRFTISRDNAKNTVYLQMNSLKPEDTAVYYCAADYRWAGRYYYWGQGTQVTVSS,high polyreactivity
2,QVQLVESGGGLVQAGGSLRLSCAASGITFGWNAMGWYRPAPGKERELVAAITEDGDSTYYADSVKGRFTISRDNAMNTVYLQMNSLKPEDTAGYYCAAEYYDVYTYVQYDSWGQGTQVTVSS,high polyreactivity
3,QVQLVESGGGLVQAGGSLRLSCAASGITFHRYAMGWYRQAPGKERELVAAISGSGGNTYYADSVKGRFTISRDNAKNTVYLQMNILKPEDTAVYYCAAYPSWYVYPKYYYWGQGTQVTVSS,high polyreactivity
4,QVQLVESGGGLVQAGGSLRLSCAASGITFHRYAMGWYRQAPGKERELVAAITKRGGSTNYADSVKGRFTISRDNAKNTVYLQMNSLKPEDTAVYYCNARSTWPSGRYAHYRRYYYWGQGTQVTVSS,high polyreactivity
5,QVQLVESGGGLVQAGGSLRLSCAASGITFHWYAMGWYRQAPGKERELVAAITSSGDSTFYADSVKGRFTISRDNAKNSVYLQMNSLKPEDTAVYYCAVDVYVGYWGRLYYWGQGTQVTVSS,low polyreactivity
6,QVQLVESGGGLVQAGGSLRLSCAASGITFIPNAMGWYRQAPGKERELVAAISISGGRTYYADSVKGRFTISRDNAKNTVYLQMNSLKPEVTAVYYCAVDSWSRVQGWLAHNYDYWGQGTQVTVSS,low polyreactivity
7,QVQLVESGGGLVQAGGSLRLSCAASGITFIRYAMGWYRQAPGKERELVAAIDWDGSSTYYADSVKGRFTISRDNAKNTGYLQMNSLKPEDTSVYYCNTDYTGPDGTDDYDYWGQGTQVTVSS,low polyreactivity
8,QVQLVESGGGLVQAGGSLRLSCAASGITFIRYAMGWYRQAPGKERELVAVITRSGGRTYYADSVKGRFTISRDNAKNTVYLQMNILKPEDTAVYYCAARAYGYDEYEYWGQGTQVTVSS,high polyreactivity
9,QVQLVESGGGLVQAGGSLRLSCAASGITFIYYAMGSYRQAPGKERELVAAISKSGGRTYYADSVKGRFTISRDNAKNTVYLQMNSLKPEDSAVYYCNKLVGDDTSLYDYWGQGTQVTVSS,high polyreactivity
10,QVQLVESGGGLVQAGGSLRLSCAASGITFIYYMGWYRQAPGKERELVAAITWSGGSTYYADSVKGRFTISRDNAKNTVLLQMNSLKPVDNAVYYCAAVRRAEEYDYWGQGTQVTVSS,low polyreactivity
11,QVQLVESGGGLVQAGGSLRLSCAASGITFKANAMGWYRQAPGKERELVAAIRQNGGDTYYADSVKGRFTISRDNAKNTVYLQMNSLKPEDTAVYYCNARLRGAGGYTFYYWGQGTQVTVSS,high polyreactivity
12,QVQLVESGGGLVQAGGSLRLSCAASGITFKGYTMGWYRQAPGTERELVATISRGGRTYADSVKGRFTISRDNAKNTVYLQMNSLKPEDTAVYYCAADKYWAQNDYWGQGTQVTVSS,low polyreactivity
13,QVQLVESGGGLVQAGGSLRLSCAASGITFKSYDMGWYRQAPGKERELVAAITSGVSTHYADSVKGRFTISRDNAKNTVYLQMNSLKPEDTAVYYCAADYTWYYPYWIMDYWGQGTQVTVSS,low polyreactivity
14,QVQLVESGGGLVQAGGSLRLSCAASGITFKWNDMGWYRQAPGKEREFVAAITGSTGSTFYAGSVKGRFTISRDNAKNTVYLQMNSLKPEDTAVYYCAAGPWFYYWGQGTQVTVSS,low polyreactivity
15,QVQLVESGGGLVQAGGSLRLSCAASGITFKYYGMGWYRQAPGKERELVAAISWSGASTYYADSVKRRFTISRDNAKNTVYLQMNSLKPEDTAVYYCAAVRRRGQRGRLDYWGQGTQVTVSS,high polyreactivity
16,QVQLVESGGGLVQAGGSLRLSCAASGITFKYYVMGWYRQAPGKERELVAAISYDGGSTYYADSVKGRFTISRDNAKNTVYLQMNSLKPEDTAVYYCAAPVWIDGDESGYEYDYWGQGTQVTVSS,low polyreactivity
17,QVQLVESGGGLVQAGGSLRLSCAASGITFLAYAMGWYRQAPGKERELVAGISKSGGNTYYADSVKGRFTISRDNAKNTVYLQMNSLKPEDTAVYYCAARYRLTYFDANYRYGYWGQGTQVTVSS,high polyreactivity
